Measured values taken from patent US20180118789A1.

What was measured:
[1] = molecular target: mouse melanocortin 1 receptor (mouse) (UniProt Q01727); assay: cell-based or functional assay
[2] = molecular target: mouse melanocortin 3 receptor (mouse) (UniProt P33033); assay: cell-based or functional assay
mouse melanocortin 3 receptor (mouse), sequence (P33033 whole entry): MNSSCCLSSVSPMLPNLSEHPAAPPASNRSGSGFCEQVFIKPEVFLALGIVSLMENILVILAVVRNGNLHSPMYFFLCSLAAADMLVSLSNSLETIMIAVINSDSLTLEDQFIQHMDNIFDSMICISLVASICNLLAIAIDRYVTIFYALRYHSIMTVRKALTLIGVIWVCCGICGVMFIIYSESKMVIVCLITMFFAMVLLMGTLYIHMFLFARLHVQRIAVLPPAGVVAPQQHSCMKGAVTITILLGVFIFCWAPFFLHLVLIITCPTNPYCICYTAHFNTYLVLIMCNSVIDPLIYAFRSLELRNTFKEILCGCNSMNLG

mouse melanocortin 1 receptor (mouse), sequence (Q01727 whole entry): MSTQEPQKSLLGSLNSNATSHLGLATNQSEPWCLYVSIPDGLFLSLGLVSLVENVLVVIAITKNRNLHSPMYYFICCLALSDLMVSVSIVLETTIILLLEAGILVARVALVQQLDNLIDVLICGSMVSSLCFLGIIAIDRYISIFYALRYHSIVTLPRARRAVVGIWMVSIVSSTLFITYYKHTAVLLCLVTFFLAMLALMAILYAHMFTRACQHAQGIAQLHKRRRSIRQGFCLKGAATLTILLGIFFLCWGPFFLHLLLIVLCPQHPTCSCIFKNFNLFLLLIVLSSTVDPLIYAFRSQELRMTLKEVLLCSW

EC50 (nM), agonist, cAMP AlphaScreen [1]: 0.015 nM | EC50 (nM), agonist, cAMP AlphaScreen [2]: 0.09 nM
Substance: NDP-MSH (4-Norleucine-7-D-Phenylalanine), Ac-Ser-Tyr-Ser-Nle-Glu-His-DPhe-Arg-Trp-Gly-Lys-Pro-Val-NH2 (peptide)
